In paper PMC11093223 (2024):

B1: syntaxin-16 (209–221) peptide [human] / TBC1D23 C-terminal domain [mouse] (parent complex)
chain 1: DDNTLYHRGFTED
chain 2: DRKEVVNIQTWINKPDIKHHFPCKEVKESGHMFPSHLLVTATHMYCLREILSRKGLAYIQSRQALNSVVKITSKKKHPELITFKYGNSSASGIEILAIERYLIPNAGDATRAIKQQIMKVLDALES

Variants of: B1
Assay: ITC

With chain 1 R8A as the variant, how does the Kd read?
Its Kd is 10.3 µM.
